PMC2034485

How the values were obtained:
GST-SAP (Homo sapiens) = GST-SAP (Homo sapiens) (UniProt Q9NS91); assay: SPR
[1] = biological target: human Rad18 (Rad18 1–495) (human) (UniProt Q9NS91); assay: SEC-MALS

Chain of GST-SAP (Homo sapiens) (Q9NS91 whole entry): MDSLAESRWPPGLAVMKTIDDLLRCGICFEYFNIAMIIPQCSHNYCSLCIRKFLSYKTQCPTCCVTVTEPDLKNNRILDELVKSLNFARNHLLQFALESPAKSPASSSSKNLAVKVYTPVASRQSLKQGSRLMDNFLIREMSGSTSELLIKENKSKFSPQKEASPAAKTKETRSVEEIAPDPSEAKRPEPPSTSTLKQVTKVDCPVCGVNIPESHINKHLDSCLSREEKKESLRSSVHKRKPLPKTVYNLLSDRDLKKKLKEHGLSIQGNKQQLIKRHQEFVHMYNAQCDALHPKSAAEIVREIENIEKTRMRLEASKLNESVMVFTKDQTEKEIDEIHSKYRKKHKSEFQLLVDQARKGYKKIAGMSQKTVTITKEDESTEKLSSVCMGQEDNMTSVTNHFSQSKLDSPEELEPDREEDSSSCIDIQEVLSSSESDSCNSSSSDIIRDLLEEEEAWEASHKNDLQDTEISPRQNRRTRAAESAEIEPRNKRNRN
Chain of human Rad18 (Rad18 1–495) (Q9NS91 whole entry): as above

stoichiometry N [1] | Substance | Kd (GST-SAP (Homo sapiens)) [µM]
 | 40-mer dsDNA | 5.6
2 | human Rad18 (Rad18 1–495) (from UniProt Q9NS91 1-495) (natural protein) | 
 | TTTTTTTTTTTTTTTTTTTTTTTTTTTTTTTTTTTTTTTT [40T] | 1.1
